The data set concerns the target T1, BV1 movement protein, untagged (tomato leaf curl virus (New Delhi)) (UniProt A0A143TU21).
T1 sequence: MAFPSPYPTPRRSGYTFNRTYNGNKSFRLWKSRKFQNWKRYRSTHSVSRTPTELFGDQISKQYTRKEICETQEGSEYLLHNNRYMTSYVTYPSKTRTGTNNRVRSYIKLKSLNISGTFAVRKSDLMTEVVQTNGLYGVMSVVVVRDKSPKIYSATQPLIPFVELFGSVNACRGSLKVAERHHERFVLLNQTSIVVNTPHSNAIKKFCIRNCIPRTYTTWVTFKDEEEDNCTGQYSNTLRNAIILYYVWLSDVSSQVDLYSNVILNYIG
Put plainly: cell_activity. The note with it: ssDNA accumulation in BY2 protoplasts (indirect), range 50-121.

“ToLCV-Nde A component viral ssDNA (CP-replacement constructs)” came in with a binding signal (% of wild type ssDNA) of 86.

Values taken from patent publication US6852907.
